Measured values reported in article PMC11574045, “A cofactor-induced repressive type of transcription factor condensation can be induced by synthetic peptides to suppress tumorigenesis” (The EMBO Journal, 2024).

System: HEK293FT cells transfected with TF library
Test: Screening of TF condensates based on fluorescent puncta
Type: cell-based
Details: Figure 1B numerical data; TF library screen, one value per transcriptional factor
Procedure, shortened: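 HEK293FT cells were reverse-transfected with Flag- or GAL4-tagged TF plasmids (1.6 μg/ml, PEI). After 60 h, cells were cultured 12 h with or without glucose, then fixed and immunostained with anti-Flag or anti-GAL4 and Alexa 488 secondaries. Fluorescent puncta were imaged over fifty random fields per well by high-content imaging.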

Molecule | Z score of condensed fraction
TRERF1 (protein, UniProt Q96PN7 1-1200, looked up) Transcriptional-regulating …: MGDQQLYKTNHVAHGSENLFYQQPPLGVHSGLNHNYGNAVTGGGMDAPQASPISPHFPQDTRDGLGLPVGSKNLGQMDTSRQGGWGSHAGPGNHVQLRGNLANSNMMWGAPAQAEPTDGYQYTYSQASEIRTQKLTSGVLHKLDSFTQVFANQNLRIQVNNMAQVLHTQSAVMDGAPDSALRQLLSQKPMEPPAPAIPSRYQQVPQQPHPGFTGGLSKPALQVGQHPTQGHLYYDYQQPLAQVPVQGGQPLQAPQMLSQHMQQMQQHQYYPPQQQQQAGQQRISMQEIQTQPQQIRPSQPQPPPQQQQPQQLQLQQRQGSMQIPQYYQPQPMMQHLQEQQQQQMHLQPPSYHRDPHQYTPEQAHTVQLIPLGSMSQYYYQEPQQPYSHPLYQQSHLSQHQQREDSQLKTYSSDRQAQAMLSSHGDLGPPDTGMGDPASSDLTRVSSTLPHRPLLSPSGIHLNNMGPQHQQLSPSAMWPQMHLPDGRAQPGSPESSGQPKGAFGEQFDAKNKLTCSICLKEFKNLPALNGHMRSHGGMRASPNLKQEEGEKVLPPQPQPPLPPPPPPPPPPQLPPEAESLTPMVMPVSVPVKLLPPKPSSQGFTNSTVAAPSARDKPASSMSDDEMPVLEIPRKHQPSVPKAEEPLKTVQEKKKFRHRPEPLFIPPPPSYNPNPAASYSGATLYQSQLRSPRVLGDHLLLDPTHELPPYTPPPMLSPVRQGSGLFSNVLISGHGPGAHPQLPLTPLTPTPRVLLCRSNSIDGSNVTVTPGPGEQTVDVEPRINIGLRFQAEIPELQDISALAQDTHKATLVWKPWPELENHDLQQRVENLLNLCCSSALPGGGTNSEFALHSLFEAKGDVMVALEMLLLRKPVRLKCHPLANYHYAGSDKWTSLERKLFNKALATYSKDFIFVQKMVKSKTVAQCVEYYYTWKKIMRLGRKHRTRLAEIIDDCVTSEEEEELEEEEEEDPEEDRKSTKEEESEVPKSPEPPPVPVLAPTEGPPLQALGQPSGSFICEMPNCGAVFSSRQALNGHARIHGGTNQVTKARGAIPSGKQKPGGTQSGYCSVKSSPSHSTTSGETDPTTIFPCKECGKVFFKIKSRNAHMKTHRQQEEQQRQKAQKAAFAAEMAATIERTTGPVGAPGLLPLDQLSLIKPIKDVDILDDDVVQQLGGVMEEAEVVDTDLLLDDQDSVLLQGDAEL | -0.901
TRIB3 (protein, UniProt Q96RU7 1-358, looked up) Tribbles homolog 3: MRATPLAAPAGSLSRKKRLELDDNLDTERPVQKRARSGPQPRLPPCLLPLSPPTAPDRATAVATASRLGPYVLLEPEEGGRAYQALHCPTGTEYTCKVYPVQEALAVLEPYARLPPHKHVARPTEVLAGTQLLYAFFTRTHGDMHSLVRSRHRIPEPEAAVLFRQMATALAHCHQHGLVLRDLKLCRFVFADRERKKLVLENLEDSCVLTGPDDSLWDKHACPAYVGPEILSSRASYSGKAADVWSLGVALFTMLAGHYPFQDSEPVLLFGKIRRGAYALPAGLSAPARCLVRCLLRREPAERLTATGILLHPWLRQDPMPLAPTRSHLWEAAQVVPDGLGLDEAREEEGDREVVLYG | -0.9785
TRPS1 (protein, UniProt Q9UHF7 1-1281, looked up) Zinc finger transcription …: MVRKKNPPLRNVASEGEGQILEPIGTESKVSGKNKEFSADQMSENTDQSDAAELNHKEEHSLHVQDPSSSSKKDLKSAVLSEKAGFNYESPSKGGNFPSFPHDEVTDRNMLAFSSPAAGGVCEPLKSPQRAEADDPQDMACTPSGDSLETKEDQKMSPKATEETGQAQSGQANCQGLSPVSVASKNPQVPSDGGVRLNKSKTDLLVNDNPDPAPLSPELQDFKCNICGYGYYGNDPTDLIKHFRKYHLGLHNRTRQDAELDSKILALHNMVQFSHSKDFQKVNRSVFSGVLQDINSSRPVLLNGTYDVQVTSGGTFIGIGRKTPDCQGNTKYFRCKFCNFTYMGNSSTELEQHFLQTHPNKIKASLPSSEVAKPSEKNSNKSIPALQSSDSGDLGKWQDKITVKAGDDTPVGYSVPIKPLDSSRQNGTEATSYYWCKFCSFSCESSSSLKLLEHYGKQHGAVQSGGLNPELNDKLSRGSVINQNDLAKSSEGETMTKTDKSSSGAKKKDFSSKGAEDNMVTSYNCQFCDFRYSKSHGPDVIVVGPLLRHYQQLHNIHKCTIKHCPFCPRGLCSPEKHLGEITYPFACRKSNCSHCALLLLHLSPGAAGSSRVKHQCHQCSFTTPDVDVLLFHYESVHESQASDVKQEANHLQGSDGQQSVKESKEHSCTKCDFITQVEEEISRHYRRAHSCYKCRQCSFTAADTQSLLEHFNTVHCQEQDITTANGEEDGHAISTIKEEPKIDFRVYNLLTPDSKMGEPVSESVVKREKLEEKDGLKEKVWTESSSDDLRNVTWRGADILRGSPSYTQASLGLLTPVSGTQEQTKTLRDSPNVEAAHLARPIYGLAVETKGFLQGAPAGGEKSGALPQQYPASGENKSKDESQSLLRRRRGSGVFCANCLTTKTSLWRKNANGGYVCNACGLYQKLHSTPRPLNIIKQNNGEQIIRRRTRKRLNPEALQAEQLNKQQRGSNEEQVNGSPLERRSEDHLTESHQREIPLPSLSKYEAQGSLTKSHSAQQPVLVSQTLDIHKRMQPLHIQIKSPQESTGDPGNSSSVSEGKGSSERGSPIEKYMRPAKHPNYSPPGSPIEKYQYPLFGLPFVHNDFQSEADWLRFWSKYKLSVPGNPHYLSHVPGLPNPCQNYVPYPTFNLPPHFSAVGSDNDIPLDLAIKHSRPGPTANGASKEKTKAPPNVKNEGPLNVVKTEKVDRSTQDELSTKCVHCGIVFLDEVMYALHMSCHGDSGPFQCSICQHLCTDKYDFTTHIQRGLHRNNAQVEKNGKPKE | -0.2124
TRIP4 (protein, UniProt Q15650 2-581, looked up) Activating signal …: AVAGAVSGEPLVHWCTQQLRKTFGLDVSEEIIQYVLSIESAEEIREYVTDLLQGNEGKKGQFIEELITKWQKNDQELISDPLQQCFKKDEILDGQKSGDHLKRGRKKGRNRQEVPAFTEPDTTAEVKTPFDLAKAQENSNSVKKKTKFVNLYTREGQDRLAVLLPGRHPCDCLGQKHKLINNCLICGRIVCEQEGSGPCLFCGTLVCTHEEQDILQRDSNKSQKLLKKLMSGVENSGKVDISTKDLLPHQELRIKSGLEKAIKHKDKLLEFDRTSIRRTQVIDDESDYFASDSNQWLSKLERETLQKREEELRELRHASRLSKKVTIDFAGRKILEEENSLAEYHSRLDETIQAIANGTLNQPLTKLDRSSEEPLGVLVNPNMYQSPPQWVDHTGAASQKKAFRSSGFGLEFNSFQHQLRIQDQEFQEGFDGGWCLSVHQPWASLLVRGIKRVEGRSWYTPHRGRLWIAATAKKPSPQEVSELQATYRLLRGKDVEFPNDYPSGCLLGCVDLIDCLSQKQFKEQFPDISQESDSPFVFICKNPQEMVVKFPIKGNPKIWKLDSKIHQGAKKGLMKQNKAV | 0.1966
TRIM32 (protein, UniProt Q8CH72 1-655, looked up) E3 ubiquitin-protein ligase …: MAAAAAASHLNLDALREVLECPICMESFTEEQLRPKLLHCGHTICRQCLEKLLASSINGVRCPFCSKITRITSLTQLTDNLTVLKIIDTAGLSEAVGLLMCRGCGRRLPRQFCRSCGVVLCEPCREADHQPPGHCTLPVKEAAEERRRDFGEKLTRLRELTGELQRRKAALEGVSRDLQARYKAVLQEYGHEERRIQEELARSRKFFTGSLAEVEKSNSQVVEEQSYLLNIAEVQAVSRCDYFLAKIKQADVALLEETADEEEPELTASLPRELTLQDVELLKVGHVGPLQIGQAVKKPRTVNMEDSWAGEEGAASSASASVTFREMDMSPEEVAPSPRASPAKQRSSEAASGIQQCLFLKKMGAKGSTPGMFNLPVSLYVTSQSEVLVADRGNYRIQVFNRKGFLKEIRRSPSGIDSFVLSFLGADLPNLTPLSVAMNCHGLIGVTDSYDNSLKVYTMDGHCVACHRSQLSKPWGITALPSGQFVVTDVEGGKLWCFTVDRGAGVVKYSCLCSAVRPKFVTCDAEGTVYFTQGLGLNVENRQNEHHLEGGFSIGSVGPDGQLGRQISHFFSENEDFRCIAGMCVDARGDLIVADSSRKEILHFPKGGGYSVLIREGLTCPVGIALTPKGQLLVLDCWDHCVKIYSYHLRRYSTP | -0.9694
TRP63 (protein, UniProt Q9H3D4 1-680, looked up) Tumor protein 63: MNFETSRCATLQYCPDPYIQRFVETPAHFSWKESYYRSTMSQSTQTNEFLSPEVFQHIWDFLEQPICSVQPIDLNFVDEPSEDGATNKIEISMDCIRMQDSDLSDPMWPQYTNLGLLNSMDQQIQNGSSSTSPYNTDHAQNSVTAPSPYAQPSSTFDALSPSPAIPSNTDYPGPHSFDVSFQQSSTAKSATWTYSTELKKLYCQIAKTCPIQIKVMTPPPQGAVIRAMPVYKKAEHVTEVVKRCPNHELSREFNEGQIAPPSHLIRVEGNSHAQYVEDPITGRQSVLVPYEPPQVGTEFTTVLYNFMCNSSCVGGMNRRPILIIVTLETRDGQVLGRRCFEARICACPGRDRKADEDSIRKQQVSDSTKNGDGTKRPFRQNTHGIQMTSIKKRRSPDDELLYLPVRGRETYEMLLKIKESLELMQYLPQHTIETYRQQQQQQHQHLLQKQTSIQSPSSYGNSSPPLNKMNSMNKLPSVSQLINPQQRNALTPTTIPDGMGANIPMMGTHMPMAGDMNGLSPTQALPPPLSMPSTSHCTPPPPYPTDCSIVSFLARLGCSSCLDYFTTQGLTTIYQIEHYSMDDLASLKIPEQFRHAIWKGILDHRQLHEFSSPSHLLRTPSSASTVSVGSSETRGERVIDAVRFTLRQTISFPPRDEWNDFNFDMDARRNKQQRIKEEGE | -0.7687
BNC2 (protein, UniProt Q6ZN30 1-1099, looked up) Zinc finger protein …: MAHLGPTPPPHSLNYKSEDRLSEQDWPAYFKVPCCGVDTSQIESEEAEVDVRERETQRDREPKRARDLTLRDSCTDNSMQFGTRTTTAEPGFMGTWQNADTNLLFRMSQQAIRCTLVNCTCECFQPGKINLRTCDQCKHGWVAHALDKLSTQHLYHPTQVEIVQSNVVFDISSLMLYGTQAVPVRLKILLDRLFSVLKQEEVLHILHGLGWTLRDYVRGYILQDAAGKVLDRWAIMSREEEIITLQQFLRFGETKSIVELMAIQEKEGQAVAVPSSKTDSDIRTFIESNNRTRSPSLLAHLENSNPSSIHHFENIPNSLAFLLPFQYINPVSAPLLGLPPNGLLLEQPGLRLREPSLSTQNEYNESSESEVSPTPYKNDQTPNRNALTSITNVEPKTEPACVSPIQNSAPVSDLTKTEHPKSSFRIHRMRRMGSASRKGRVFCNACGKTFYDKGTLKIHYNAVHLKIKHRCTIEGCNMVFSSLRSRNRHSANPNPRLHMPMLRNNRDKDLIRATSGAATPVIASTKSNLALTSPGRPPMGFTTPPLDPVLQNPLPSQLVFSGLKTVQPVPPFYRSLLTPGEMVSPPTSLPTSPIIPTSGTIEQHPPPPSEPVVPAVMMATHEPSADLAPKKKPRKSSMPVKIEKEIIDTADEFDDEDDDPNDGGAVVNDMSHDNHCHSQEEMSPGMSVKDFSKHNRTRCISRTEIRRADSMTSEDQEPERDYENESESSEPKLGEESMEGDEHIHSEVSEKVLMNSERPDENHSEPSHQDVIKVKEEFTDPTYDMFYMSQYGLYNGGGASMAALHESFTSSLNYGSPQKFSPEGDLCSSPDPKICYVCKKSFKSSYSVKLHYRNVHLKEMHVCTVAGCNAAFPSRRSRDRHSANINLHRKLLTKELDDMGLDSSQPSLSKDLRDEFLVKIYGAQHPMGLDVREDASSPAGTEDSHLNGYGRGMAEDYMVLDLSTTSSLQSSSSIHSSRESDAGSDEGILLDDIDGASDSGESAHKAEAPALPGSLGAEVSGSLMFSSLSGSNGGIMCNICHKMYSNKGTLRVHYKTVHLREMHKCKVPGCNMMFSSVRSRNRHSQNPNLHKNIPFTSVD | -0.9038
